# Like-named read-outs stand apart in the source and are kept apart here.
# What was measured:
# [1] = biological target: Gag-CY (HIV-1); assay: split reporter (BiFC, NanoBiT); BiFC quantified by flow cytometry: 293T cells co-transfected with 0.25 μg of each BiFC construct and mRFP1, harvested about 14 h after transfection and fixed; percent of mRFP+ cells that are YFP+, and mean intensity of YFP+ cells
# [2] = biological target: Gag-CY (HIV-1); assay: as above; remark: listed apart in the source
substance,measurement,setting,value
Gag-NY (natural protein),percent of mRFP+ cells that are YFP+ (BiFC),[1],3.5%
same,percent of mRFP+ cells that are YFP+ (BiFC),[2],3.3%

# Source: article PMC2700067
